T1: wildtype feline IL-31 protein (Feline_IL31_wildtype) (feline)
T1 chain: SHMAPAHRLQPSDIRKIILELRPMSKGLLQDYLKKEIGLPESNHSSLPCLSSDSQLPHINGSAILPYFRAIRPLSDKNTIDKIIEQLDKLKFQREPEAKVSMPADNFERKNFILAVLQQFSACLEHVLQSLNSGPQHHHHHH

T2: canine IL-31 protein (Canine_IL31) (canine)
T2 chain: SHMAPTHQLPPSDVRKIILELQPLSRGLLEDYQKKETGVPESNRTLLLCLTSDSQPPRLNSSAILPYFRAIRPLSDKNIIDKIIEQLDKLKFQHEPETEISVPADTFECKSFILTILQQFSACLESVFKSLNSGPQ

B1: A30 (antibody, V domains shown)
VH: QVLLVQSGAEVRTPGASVKIFCKASGYSFASYTIHWLRQAPAQGLEWMGNINPTSGYTENNQRFKDRLTLTADTSTNTAYMELSSLRSADTAMYYCARWGFKYDGEWSFDVWGAGTTVTVSS
VL: EIQMTQSPSSLSASPGDRVTITCRASQGISIWLSWYQQKPGNIPKVLINKASNLHIGVPSRFSGSGSGTDFTLTISSLEPEDAATYYCLQSQTYPLTFGGGTKLEIK
B2: A36 (antibody, V domains shown)
VH: B1 VH with A30T, H35A
VL: B1 VL
B3: A32 (antibody, V domains shown)
VH: B1 VH with A30T, S31A
VL: B1 VL
B4: A35 (antibody, V domains shown)
VH: B1 VH with A30T, I34A
VL: B1 VL
B5: A34 (antibody, V domains shown)
VH: B1 VH with A30T, T33A
VL: B1 VL
B6: Feline 15H05 1.3 (antibody, V domains shown)
VH: B1 VH with A30T
VL: EVVLTQSSAFLSRTLKEKATITCRASQGISIWLSWYQQKPNQAPKLLVKKASNLHIGAPSRFSGSGSGTDFTLTISSPEPEDAATYYCLQSQTYPLTFGGGTKLGDQ
notes: Feline heavy and kappa constant regions
B7: Feline 15H05 1.2 (antibody, V domains shown)
VH: B1 VH with A30T
VL: EITMTQSPGSLAGSPGQQVTMNCRASQGISIWLSWYQQKPGQHPKLLIYKASNLHIGVPDRFSGSGSGTDFTLTISNLQAEDVASYYCLQSQTYPLTFGGGTKLEIK
notes: as for B6
B8: Feline 15H05 2.2 (antibody, V domains shown)
VH: B1 VH with S28G, A30T, L37V, A40S
VL: B7 VL
notes: as for B6
B9: Feline 15H05 3.2 (antibody, V domains shown)
VH: B1 VH with T13K, A30T, A42E
VL: B7 VL
notes: as for B6
B10: Feline_11E12 1.1_K46Q (antibody, V domains shown)
VH: QVLLVQSGAEVKKPGASVKIFCKASGYSFTYYDINWLRQAPEQGLEWMGWIFPGDGGTKYNETFKGRLTLTADTSTNTVYMELSSLRSADTAMYYCARGGTSVIRDAMDYWGQGALVTVSS
VL: EIQMTQSPSSLSASPGDRVTITCRASESVDNYGISFMHWYQQKPGQVPKLLIYRASNLESGVPSRFSGSGSGTDFTLTISSLEPEDAATYYCQQSNKDPLTFGQGTKLEIK
notes: felinized 11E12 with the single VL substitution K46Q; copies: 2 + 2

Residue numbers refer to the chain shown, from its start. Numbers in names are those of the source.

The first assay addresses T1, wildtype feline IL-31 protein …. As to the kind of experiment: cell-based or functional assay.
B1: the “% Inhibition Relative to Parent (pSTAT, FCWF-4 cells)” value (“% Inhibition Relative to Parent” below) turned out to be 28.4%.

Regarding B2, the “% Inhibition Relative to Parent” value was determined as 25.2%.

As to B3, the “% Inhibition Relative to Parent” value worked out at 40.3%.

For the molecule B4, the “% Inhibition Relative to Parent” value was determined as 92.5%.

For B5, the “% Inhibition Relative to Parent” value is 0%.

The target of another assay is T2, canine IL-31 protein (Canine_IL31). The assay can be described thus: SPR (Biacore), IL-31 on chip, 1:1 fit. A general note: SPR reads the build-up and loss of mass on a sensor chip optically.
Consider B6, for which the koff was 0.00019 s⁻¹ and the kon amounted to 29700 M⁻¹ s⁻¹.

As for B7, the dissociation rate constant (koff) worked out at 0.000115 s⁻¹ and the kon amounted to 33000 M⁻¹ s⁻¹.

B8 gave a koff of 1.09e-05 s⁻¹ and an on-rate constant (kon) of 27700 M⁻¹ s⁻¹.

The molecule B9 yielded a koff of 6.04e-06 s⁻¹ and a kon of 29700 M⁻¹ s⁻¹.

Consider B10, for which the off-rate constant (koff) came to 8.85e-05 s⁻¹ and the kon stood at 46400 M⁻¹ s⁻¹.

For a further assay, the target named is T1, wildtype feline IL-31 protein …. As to the kind of experiment: SPR (Biacore), IL-31 on chip, 1:1 fit. As to the method: The affinity with which candidate mAbs bind canine and feline IL-31 was determined using surface plasmon resonance (SPR) on a Biacore system (Biocore Life Sciences (GE Healthcare), Uppsala, Sweden). To avoid affinity differences associated with differential surface preparation that can occur when immobilizing antibodies to surfaces; a strategy was employed where IL-31 was directly conjugated to the surface. Immobilization was obtained by amine coupling 5 μg/mL IL-31 using N-hydroxysuccinimide (NHS)/1-Ethyl-3-(3-dimethylaminopropyl) carbodiimide (EDC) chemistry. Chips were quenched with ethanolamine and the affinity with which all candidate mAbs bound to the immobilized IL-31 was evaluated. All curves were fit to a 1:1 model. […] Results for affinity measurements are described herein.
B6 registered a Kd of 86.4 nM, a koff of 0.00328 s⁻¹ and a kon of 38000 M⁻¹ s⁻¹.

The molecule B7 had a dissociation constant Kd of 104 nM, a koff of 0.00147 s⁻¹ and a kon of 14100 M⁻¹ s⁻¹.

Take B8: binding was characterised by a dissociation constant (Kd) of 2.15 nM, the koff is 0.00195 s⁻¹ and the on-rate (kon) is 905000 M⁻¹ s⁻¹.

The molecule B9 had a Kd of 12.6 nM, an off-rate constant (koff) of 0.00166 s⁻¹ and an on-rate (kon) of 132000 M⁻¹ s⁻¹.

Take B10: the dissociation constant Kd turned out to be 12.6 nM, the koff is 0.000145 s⁻¹ and the on-rate (kon) worked out at 11500 M⁻¹ s⁻¹.

For a further assay the target is unchanged. The assay can be described thus: Biacore, feline IL-31 chip, mAb 100 nM, share of points within parent mean +/-3 SD. Details: key: % of mutant data points within parent mAb mean ±3 SD. From the text: The mean response unit of four replicates of the parent mAb+/−3 standard deviations was used to generate parameters to define a threshold of response units comprising both the on- and off-rates antibody binding (FIG. 22). The percentage of data points for each mutant fell within this threshold was then used to define a “% similarity score” (FIG. 23).
As to B1, the “Binding Similarity score” value amounted to 79.

B2: the “Binding Similarity score” value was determined as 10.4.

With B3, the “Binding Similarity score” value came out at 39.2.

As to B4, the “Binding Similarity score” value was determined as 97.5.

For the molecule B5, the “Binding Similarity score” value amounted to 3.37.

The koff is the rate constant with which the complex falls apart. What is called kon is the rate constant with which the complex forms. Usually Kd stands for a measure of binding affinity in units of concentration.

Source of the values: patent US20250136677A1 (ZOETIS SERVICES, published 2025).
